Measurements from PMC3169398, “Structures of phosphopantetheine adenylyltransferase from Burkholderia pseudomallei” (Acta Crystallographica Section F: Structural Biology and …, 2011).

Molecular target: the molecule itself
Assay: crystal structure

B1: Phosphopantetheine adenylyltransferase from B. pseudomallei strain 1710b, tag removed (GPGS-ORF) (enzyme)
chain: MVVAVYPGTFDPLTRGHEDLVRRASSIFDTLVVGVADSRAKKPFFSLEERLKIANEVLGHYPNVKVMGFTGLLKDFVRANDARVIVRGLRAVSDFEYEFQMAGMNRYLLPDVETMFMTPSDQYQFISGTIVREIAQLGGDVSKFVFPSVEKWLTEKVAAMAQGPSA
notes: also called Bp PPAT; PPAT
- stoichiometry N: 6

B2: Phosphopantetheine adenylyltransferase from B. pseudomallei strain 1710b, with the full-length expression tag (…-ORF) (enzyme)
chain: B1 chain
notes: also called Bp PPAT; PPAT
- stoichiometry N: 6
